These results are taken from the supplement of paper PMC5998384.

Data set [1] relates to HeLa Kyoto. Briefly: solubility in G1/S (NP-40 vs SDS abundance) (log2 ratio); higher = more soluble. The conditions noted are these: cell cycle stage: G1/S.
Data set [2] relates to HeLa Kyoto. The experiment in a line: solubility change mitosis vs G1/S (difference of NP-40 vs SDS log2 ratios) (log2 ratio difference); higher = more soluble in mitosis.
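Throughout, for solubility change mitosis vs G1/S (difference of NP-40 vs SDS log2 ratios): synchronized HeLa Kyoto cells (double thymidine block for G1/S, nocodazole release for mitosis), protein amounts in NP-40 versus SDS lysates quantified by mass spectrometry, three biological replicates.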
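Throughout, for solubility in G1/S (NP-40 vs SDS abundance): HeLa Kyoto cells arrested at G1/S by double thymidine block, proteins quantified by TMT10plex mass spectrometry in mild NP-40 versus SDS extracts, three biological replicates.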

Consider “MRAPIPEPKPGDLIEIFRPFYRHWAIYVGDGYVVHLAPPSEVAGAGAASVMSALTDKAIVKKELLYDVAGSDKYQVNNKHDDKYSPLPCSKIIQRAEELVGQEVLYKLTSENCEHFVNELRYGVARSDQVRDVIIAASVAGMGLAAMSLIGVMFSRNKRQKQ [PLA2G16]”, for which the “solubility in G1/S (log2)” value in data set [1] came to 0.0787. In addition, in data set [2], the “solubility change mitosis (log2)” value was -0.137.

Take “MRDRLPDLTACRKNDDGDTVVVVEKDHFMDDFFHQVEEIRNSIDKITQYVEEVKKNHSIILSAPNPEGKIKEELEDLNKEIKKTANKIRAKLKAIEQSFDQDESGNRTSVDLRIRRTQHSVLSRKFVEAMAEYNEAQTLFRERSKGRIQRQLEITGRTTTDDELEEMLESGKPSIFTSDIISDSQITRQALNEIESRHKDIMKLETSIRELHEMFMDMAMFVETQGEMINNIERNVMNATDYVEHAKEETKKAIKYQSKARRKKWIIIAVSVVLVAIIALIIGLSVGK [STX2]”: the “solubility in G1/S (log2)” value in data set [1] is 0.137. The “solubility change mitosis (log2)” value in data set [2] came out at 0.0333.

As to “MRDSTGAGNSLVHKRSPLRRNQKTPTSLTKLSLQDGHKAKKPACKFEEGQDVLARWSDGLFYLGTIKKINILKQSCFIIFEDSSKSWVLWKDIQTGATGSGEMVCTICQEEYSEAPNEMVICDKCGQGYHQLCHTPHIDSSVIDSDEKWLCRQCVFATTTKRGGALKKGPNAKALQVMKQTLPYSVADLEWDAGHKTNVQQCYCYCGGPGDWYLKMLQCCKCKQWFHEACVQCLQKPMLFGDRFYTFICSVCSSGPEYLKRLPLQWVDIAHLCLYNLSVIHKKKYFDSELELMTYINENWDRLHPGELADTPKSERYEHVLEALNDYKTMFMSGKEIKKKKHLFGLRIRVPPVPPNVAFKAEKEPEGTSHEFKIKGRKASKPISDSREVSNGIEKKGKKKSVGRPPGPYTRKMIQKTAEPLLDKESISENPTLDLPCSIGRTEGTAHSSNTSDVDFTGASSAKETTSSSISRHYGLSDSRKRTRTGRSWPAAIPHLRRRRGRLPRRALQTQNSEIVKDDEGKEDYQFDELNTEILNNLADQELQLNHLKNSITSYFGAAGRIACGEKYRVLARRVTLDGKVQYLVEWEGATAS [MTF2]”, the “solubility in G1/S (log2)” value in data set [1] is -1.31. The “solubility change mitosis (log2)” value in data set [2] came to 0.618.

Regarding “MRLRNGTFLTLLLFCLCAFLSLSWYAALSGQKGDVVDVYQREFLALRDRLHAAEQESLKRSKELNLVLDEIKRAVSERQALRDGDGNRTWGRLTEDPRLKPWNGSHRHVLHLPTVFHHLPHLLAKESSLQPAVRVGQGRTGVSVVMGIPSVRREVHSYLTDTLHSLISELSPQEKEDSVIVVLIAETDSQYTSAVTENIKALFPTEIHSGLLEVISPSPHFYPDFSRLRESFGDPKERVRWRTKQNLDYCFLMMYAQSKGIYYVQLEDDIVAKPNYLSTMKNFALQQPSEDWMILEFSQLGFIGKMFKSLDLSLIVEFILMFYRDKPIDWLLDHILWVKVCNPEKDAKHCDRQKANLRIRFKPSLFQHVGTHSSLAGKIQKLKDKDFGKQALRKEHVNPPAEVSTSLKTYQHFTLEKAYLREDFFWAFTPAAGDFIRFRFFQPLRLERFFFRSGNIEHPEDKLFNTSVEVLPFDNPQSDKEALQEGRTATLRYPRSPDGYLQIGSFYKGVAEGEVDPAFGPLEALRLSIQTDSPVWVILSEIFLKKAD [MGAT4B]”, the “solubility in G1/S (log2)” value in data set [1] was 0.0108. Moreover, in data set [2], the “solubility change mitosis (log2)” value was -0.107.

With “MRSFLQQDVNKTKSRLNVLNGLANNMDDLKINTDITGAKEELLDDNNFISDKESGVHKPKDCQTSFQKNNTLTLPEELSKDKSENALSGGQSSLFIHAGAPTVSSENFILPKGAAVNGPVSHSSLTKTSNMNKGSVSLTTGQPVDQPTTESCSTLKVAADLQLSTPQKASQHQVLFLLSDVAHAKNPTHSNKKLPTSASVGCDIQNSVGSNIKSDGTLINQVEVGEDGEDLLVKDDCVNTVTGISSGTDGFRSENDTNWDPQKEFIQFLMTNEETVDKAPPHSKIGLEKKRKRKMDVSKITRYTEDCFSDSNCVPNKSKMQEVDFLEQNEELQAVDSQKYALSKVKPESTDEDLESVDAFQHLIYNPDKCGEESSPVHTSTFLSNTLKKKCEESDSESPATFSTEEPSFYPCTKCNVNFREKKHLHRHMMYHLDGNSHFRHLNVPRPYACRECGRTFRDRNSLLKHMIIHQERRQKLMEEIRELKELQDEGRSARLQCPQCVFGTNCPKTFVQHAKTHEKDKRYYCCEECNFMAVTENELECHRGIAHGAVVKCPMVTSDIAQRKTQKKTFMKDSVVGSSKKSATYICKMCPFTTSAKSVLKKHTEYLHSSSCVDSFGSPLGLDKRKNDILEEPVDSDSTKTLTKQQSTTFPKNSALKQDVKRTFGSTSQSSSFSKIHKRPHRIQKARKSIAQSGVNMCNQNSSPHKNVTIKSSVDQKPKYFHQAAKEKSNAKANSHYLYRHKYENYRMIKKSGESYPVHFKKEEASSLNSLHLFSSSSNSHNNFISDPHKPDAKRPESFKDHRRVAVKRVIKESKKESSVGGEDLDSYPDFLHKMTVVVLQKLNSAEKKDSYETEDESSWDNVELGDYTTQAIEDETYSDINQEHVNLFPLFKSKVEGQEPGENATLSYDQNDGFYFEYYEDTGSNNFLHEIHDPQHLETADASLSKHSSVFHWTDLSLEKKSCPYCPATFETGVGLSNHVRGHLHRAGLSYEARHVVSPEQIATSDKMQHFKRTGTGTPVKRVRKAIEKSETTSEHTCQLCGGWFDTKIGLSNHVRGHLKRLGKTKWDAHKSPICVLNEMMQNEEKYEKILKALNSRRIIPRPFVAQKLASSDDFISQNVIPLEAYRNGLKTEALSVSASEEEGLNFLNEYDETKPELPSGKKNQSLTLIELLKNKRMGEERNSAISPQKIHNQTARKRFVQKCVLPLNEDSPLMYQPQKMDLTMHSALDCKQKKSRSRSGSKKKMLTLPHGADEVYILRCRFCGLVFRGPLSVQEDWIKHLQRHIVNANLPRTGAGMVEVTSLLKKPASITETSFSLLMAEAAS [ZNF644]”, the “solubility in G1/S (log2)” value in data set [1] is -0.00511. In addition, the “solubility change mitosis (log2)” value in data set [2] turned out to be 0.321.

Turning to “MRVDSSADPTMSQEQGPGSSTPPSSPTLLDALLQNLYDFGGTEGETEQKKIIKKRENKKRDVMASAALAAEPSPLPGSLIRGQRKSASSFFKELREERHCAPSGTPTGPEILAAAVPPSSLKNNREQVEVVEFHSNKKRKLTPDHNKNTKQANPSVLERDVDTQEFNLEKARLEVHRFGITGYGKGKERILEQERAIMLGAKPPKKSYVNYKVLQEQIKEKKAAKEEEKRLAQETDIFKKKKRKGQEDRKSKKKSAPSILSNGRIGQVGKFKNGTLILSPVDIKKINSSRVAK [C1ORF131]”, in data set [1], the “solubility in G1/S (log2)” value is -1.24. Moreover, in data set [2], the “solubility change mitosis (log2)” value came out at 0.969.

In the case of “MSAALLRRGLELLAASEAPRDPPGQAKPRGAPVKRPRKTKAIQAQKLRNSAKGKVPKSALDEYRKRECRDHLRVNLKFLTRTRSTVAESVSQQILRQNRGRKACDRPVAKTKKKKAEGTVFTEEDFQKFQQEYFGS [RPS19BP1]”, in data set [1], the “solubility in G1/S (log2)” value was -0.897. Also, the “solubility change mitosis (log2)” value in data set [2] was found to be 0.671.

On to “MSDIVEKTLTALPGLFLQNQPGGGPAAAKASFSSRLGSLVRGITALTSKHEEEKLIQQELSSLKATVSAPTTTLKMMKECMVRLIYCEMLGYDASFGYIHAIKLAQQGNLLEKRVGYLAVSLFLHESHELLLLLVNTVVKDLQSTNLVEVCMALTVVSQIFPCEMIPAVLPLIEDKLQHSKEIVRRKAVLALYKFHLIAPNQVQHIHIKFRKALCDRDVGVMAASLHIYLRMIKENSSGYKDLTGSFVTILKQVVGGKLPVEFNYHSVPAPWLQIQLLRILGLLGKDDQRTSELMYDVLDESLRRAELNHNVTYAILFECVHTVYSIYPKSELLEKAAKCIGKFVLSPKINLKYLGLKALTYVIQQDPTLALQHQMTIIECLDHPDPIIKRETLELLYRITNAQNITVIVQKMLEYLHQSKEEYVIVNLVGKIAELAEKYAPDNAWFIQTMNAVFSVGGDVMHPDIPNNFLRLLAEGFDDETEDQQLRLYAVQSYLTLLDMENVFYPQRFLQVMSWVLGEYSYLLDKETPEEVIAKLYKLLMNDSVSSETKAWLIAAVTKLTSQAHSSNTVERLIHEFTISLDTCMRQHAFELKHLHENVELMKSLLPVDRSCEDLVVDASLSFLDGFVAEGLSQGAAPYKPPHQRQEEKLSQEKVLNFEPYGLSFSSSGFTGRQSPAGISLGSDVSGNSAETGLKETNSLKLEGIKKLWGKEGYLPKKESKTGDESGALPVPQESIMENVDQAITKKDQSQVLTQSKEEKEKQLLASSLFVGLGSESTINLLGKADTVSHKFRRKSKVKEAKSGETTSTHNMTCSSFSSLSNVAYEDDYYSNTLHDTGDKELKKFSLTSELLDSESLTELPLVEKFSYCSLSTPSLFANNNMEIFHPPQSTAASVAKESSLASSFLEETTEYIHSNAMEVCNNETISVSSYKIWKDDCLLMVWSVTNKSGLELKSADLEIFPAENFKVTEQPGCCLPVMEAESTKSFQYSVQIEKPFTEGNLTGFISYHMMDTHSAQLEFSVNLSLLDFIRPLKISSDDFGKLWLSFANDVKQNVKMSESQAALPSALKTLQQKLRLHIIEIIGNEGLLACQLLPSIPCLLHCRVHADVLALWFRSSCSTLPDYLLYQCQKVMEGS [AP4E1]”, for which the “solubility in G1/S (log2)” value in data set [1] is -0.402. Besides, the “solubility change mitosis (log2)” value in data set [2] was -0.0567.

With “MSEESDSLRTSPSVASLSENELPPPPEPPGYVCSLTEDLVTKAREELQEKPEWRLRDVQALRDMVRKEYPNLSTSLDDAFLLRFLRARKFDYDRALQLLVNYHSCRRSWPEVFNNLKPSALKDVLASGFLTVLPHTDPRGCHVVCIRPDRWIPSNYPITENIRAIYLTLEKLIQSEETQVNGIVILADYKGVSLSKASHFGPFIAKKVIGILQDGFPIRIKAVHVVNEPRIFKGIFAIIKPFLKEKIANRFFLHGSDLNSLHTNLPRSILPKEYGGTAGELDTATWNAVLLASEDDFVKEFCQPVPACDSILGQTLLPEGLTSDAQCDDSLRAVKSQLYSCY [TTPAL]”, the “solubility in G1/S (log2)” value in data set [1] amounted to 0.206. Also, in data set [2], the “solubility change mitosis (log2)” value is -0.0202.

With “MSFAESGWRSALRRRGPGTPGPVARPSYSSFTQGDSWGEGEVDEEEGCDQVARDLRAEFSAGAWSEPRKRSVLPPDGNGSPVLPDKRNGIFPAAAGSRAQPRRWPVQVLSILCSLLFAILLAFLLAIAYLIVKELHAENLKNEDDVDTGLLGFWTLLIISLTAGFSCCSFSWTVTYFDSFEPGMFPPTPLSPARFKKLTGHSFHMGYSMAILNGIVAALTVAWCLM [ARL6IP6]”, the “solubility in G1/S (log2)” value in data set [1] is -0.241. The “solubility change mitosis (log2)” value in data set [2] worked out at 0.698.

As to “MSGEPELIELRELAPAGRAGKGRTRLERANALRIARGTACNPTRQLVPGRGHRFQPAGPATHTWCDLCGDFIWGVVRKGLQCARLSADCKFTCHYRCRALVCLDCCGPRDLGWEPAVERDTNVDEPVEWETPDLSQAEIEQKIKEYNAQINSNLFMSLNKDGSYTGFIKVQLKLVRPVSVPSSKKPPSLQDARRGPGRGTSVRRRTSFYLPKDAVKHLHVLSRTRAREVIEALLRKFLVVDDPRKFALFERAERHGQVYLRKLLDDEQPLRLRLLAGPSDKALSFVLKENDSGEVNWDAFSMPELHNFLRILQREEEEHLRQILQKYSYCRQKIQEALHACPLG [RASSF1]”, in data set [1], the “solubility in G1/S (log2)” value came to 0.0141. For the same sequence, the “solubility change mitosis (log2)” value in data set [2] is 0.0429.
